experiment: soluble on expression in E. coli; label from the status in PepcDB or PDB records

Soluble on expression in E. coli, not soluble:
MGSDKIHHHHHHMQPRLVIAGTHSGVGKTTVTLGLMAAFVEKGNIVQGFKCGPDYIDPSYHRAVTKRASRNLDSWMVSEDVVNDIFIEGCNGADLSIIEGVMGFYDGKASTSDKGSTADISLLLQAPVLLVVDISGMARSAAAVVKGFQQLNEKVKIAGVILNGAGSERHAEMCSEAIKEACGIPALGYLKKGDVPSIPERHLGLVPALERGEHDSLFSQLAAVVSRQFDLERIERLALEASALSRRTNLFQQTKRPSVVKIAVAYDAAFHFYYEENFTLLRQAGAELVYFSPLRGEDLPSHCDGLYLGGGFPEEFADELSQWIKDHPQLKKRVQSGLPTLAECGGYMFLGEQLTTTKGKTVEMAGVIPMVVQMENKLVSLGYRDVTPLDDSFLLSKGQQIRGHEFHYSKAVYTETERPAYFVKGLFGEGKEGYMSDHLLAGYTHLHFASEPAVATQWVKACEVYKNRRLHRGQVSQ, MGSDKIHHHHHHMQSPIPVLSMRKLYLGASDRQQFIADLGRAARDVGFFYLEDHGISLAEQVKVLDTAKSFFALSDAEKKQVQMIHSPHFRGYSANYSELTAGRPDRREQFDIMDELPALSASAIHHEWQKLIGPNQWPRQLPAIKSQLLSWQDKLTEVSLQLLAALCESLEQPADALAETISNGPYRHTKLIKYPGSPEASGQGVGAHKDPGYLTLVLQDENSGLEVEYEQQWYKVAPRPGAFVVNIGELLELASNGYLKATNHRVSSPKTGVTRYSSAFFMAAQLNASVPVLKLPSHLAKHAKGPTSDPGNPLLHNVGENVMKGRKRSHPDVSARFYASEEKCSSC, MGSDKIHHHHHHMQSTASHTKAPGKSHPVVTEDQYFSVSPLMLLADNAALFSVYLRQGNNFVLYTHAGEMFTHRHKQRLAENGVTEVWLKESQRHAYTAHVEQHLGNVLADDSLPAEARAGALYGIASDALQDVFAQHGAGALPADTARRARQLVEHIISFLKVPNGITALGRFIAHDYHSWTHSLNTTFYTLGILQSYGLPDESMAHIGLGAMLHDIGKAEIPSSILLKPGPLTASERQCINTHPLMGVARLAQTELPQTTLNCILFHHEKLDGSGYPSGIGGTAIPLAVRAVTVADIYDALASERPYAAARPPFAVLQLMRGEMADELDMDVFKNFVLMLSNAGLTKT, MGSDKIHHHHHHMQTLLITSSFDKTCDYIQVKFPELNYFRLNVDKFSSYKLEIIADGFRIECGEHRLFSSECSSIYFRKPVFENLDGNIDVQYHNFVHKESYSLIEGLIESFSGRCLSKPSVMRRANNKVFQIMLAKSVGFLMPQLSITNDEIVLKKWAKDDAIVKPLAIGTVEYKTKKEFVQTNRLSSEKDTSALKYAPVYLQKFVDKDYEVRVTAINGQFFPARIDASNPVDWRKPNTETLFTKCVLPENIEQQCRTYMYKSSMDFGCFDFLVKDNVWYFLEMNANGQWGWLDNLFEGKISDAIATYLKSGLKNAHC, MGSDKIHHHHHHMQVLLVGGTGTLGRQIARRAIDAGHQVRCMVRKPRKGAFLQEWGCELTCGDLLDPETIDYSLDGIDAVIDAATSRPDDSASVYTTDWDGKLNLLRACEKAGVTRYVFLSLLAAEKHLNVPLMDIKFCTERLLADSSFDYTILQGVAFMQGLIGQIAIPVLENQTVWVSETPTAVAYMNTQDVARFAVAALERPETIRRSFPVVGPKAWTSEEIVQFCEKSSSKTAKVIRVSPFLIGLSQRVVSFFEQSVNMAERLAFAEVTGGGIALDAPMDDTYSCFGLDSSETTPLESYISEYYDTILKRLREMEADLDEESRKKLPF, MGSDKIHHHHHHMREEAPSRAQRVIDNNDILFQCVRPYQKNNYIHRILNTSNQQWVASTGYAQIRTTELPNYIYHLLNTDEFNRKVMVRCTGSSYPAINSEDLATIHLYYTPDKKEQLKISRLLDLLDKRIATQNKIIEKLQSLIKGIAQHCIKESTSGNTYVKLGDICQITTGKLDANAQVDNGIYPFFTCAEQPFKIDSFAFDTEALLISGNGANLGYINYYKGKFNAYQRTVSIR, MGSDKIHHHHHHMREENYEEAAKAFNAAIEANPSDPIGFVNFGNLLGMVGELDKALIFFDKAIGLQEDCAPAYYGAGTIYYKQEKFEDGAKMFKQAIAHKLNETDVYFMLGMCYYQLGALPHAQANFQRALELDSNDVEARFQLGLCLAQLEQVDEAIKHLQLVVEHVPNHADAHFNLGVAYAYKDRLEEALAHFERAIHIQPEHILAHNGKKTVEEVLNKGANEA, MGSDKIHHHHHHMRETIREIQKVAYWLAIKGLSEANAGNISVRLDERPEGYEVKSVNEYGFDYDGPEMYLLITATGSRMREVYEDDSKICLLHVLPGKHYEILHGNGKPTSEFPTHLMIHAKFKEMNPEKKAIVHTHPLNLLTLMNLEEFQELLPKMMKIHPEVLIFFPQGISVVEFEKPGSVELGLKTVEKSEGKDAVLWDKHGVVAFGKDVAEAYDRVEILEKAAEILLRVLSLGRNPTGVPEGWL, MGSDKIHHHHHHMRGGNIETMVAGTIKVVQMLPDLNEGGVEKGTLELGAFLTESGHQSIVISGGGRMVSQLESEGSRHLTWPHIGEKSPRCLNYFFPLRRFLLKEGVDIVHLRSRLPAWVAFLAWKSLPVKRRPVLITTFHGFYSVNFYSAIMTRGERIIAVSKTIADHIREAYDVAAERIVLIPRGLDEEQFNPENVTVERIRNLKERWGLNGNTDPVVMLPGRVTRLKGQDVFLQSLAGIKELPWKAIMVGESDATSEYTRILEKMVGDPDLRERVKFVGHCSDMPAAMTLADIVVSTSTKPESFGRTSVEAQAMRKPVIVSAHGGSLETVLDGKTGWHVKPGDSEALSACLRIALSDESVRKKMGVEGRKWVVSQFTVTKMCEKTVALYQELLLRKSSWSQI, MGSDKIHHHHHHMRIAQIAPLHEAVPPKLYGGTERVVSYLTEALVEMGHDVTLFASGDSQTSAKLEAVWPQALRLDPTIRDVMAPHMLLLEEVRRRADEFDVLHFHIDYYPFPLFSRQPVPHLTTLHGRLDLPELQPIFNTFSDVPVVSISDNQRIPLSQANWLQTTYHGLPENLLKPIPDVKPSYLAFLGRISPEKRVDTAIRIAEQAGMPIKIAAKLDKADRAYYEEKIKPLFSLPHVEYIGEISEAEKAEFLGNAHALLFPIDWPEPFGLVMIEAMACGTPVIAFKRGSVPEVIENGVSGFVVEDELSAVAAVKRLNTLPRERVRAAFDARFTSKVMARNYVKGYEELLRQKRRTVLREVNAG, MGSDKIHHHHHHMRILYYDCFCGISGDMNLAALVDLGVPKKYLIDELLKLNLGSEYEIKIEKGQKLGITGTRVDVILKDEHHNKHELEEVLHNHEHKHNHHEIKNDEPAHSHEHHHRSLRDIEEIINSSTLNDKVKKLSLNIFMKVAEAEAKVHGRELYEVHFHEVGAVDSIVDIVGAAICIDYLKVDKILASRVQVGGGFVRCAHGIMPVPAPATVEILKNIPINTGIVQFETTTPTGAAILAANVKEFTQKLDFIIKKTAYGIGHRDLEIPNVLRVYLGEEESFQDIENQYILETNIDDMNPEIYGYVEEKLFKVGALDVFKTPICMKKGRPGIKLSVLTNEKSEREVLDVIFEETTSIGVRRYKVEKIMLKREFSKVKTEFGDITVKKAYYKGELVKYKPEYEECKDIAREKNVSIHKVYKAVYKQDLK, MGSDKIHHHHHHMRINVEEAIEKLLANQLVAMPTETVYGLAARLTCPGAIKKIFEIKGRSLVNPLIIHVANPIDVCAYAIALPPHFDALTHAFWPGPLTLIVPIQLDLVDSIVRAGLPTAAFRMPSHPLTLHVIRAVGPLVMPSANLSGKPSSTDVKHVEMDFGLDFPVLDGGPCQEGVESTILHYRNSQWEIARLGALSATVFQPILGYEPIYQKIVKNDQIISPGQMFRHYAPQATLFLGDQKQITEADFIVGFTEKSYPVEKRVLYLGSLSNPHEVAENLYAVLRQLDFEKAKIAWVDMDFPSEGLWKTIAERLSRAGEK, MGSDKIHHHHHHMRKEKLYTGCLLLMALITGSCSEEENPEVRPATKPAEPYTSYYYYSYEAARQLSATDFALAEGQFTPGPTYIKGDTLFVANIQSGAFSLELYDRNKNRHLASLKSWKYKEAEQKFPDKIEAIGISGNRLYLANISSRIDVFDVRTLEFITRIGTGNWGDGINQMVHSHAMAITPDGNIMIRTKKNLLVYREADVTLENYQKVPFYCRSKGDGMDVNNGFHSHQMVQDSTGIVYLADFGQYGNQKIQAIDTTLIEKGDQKILIDTEKTLPLSFNPCGIALHENRMILSAQNGSLFIYDRTKGNWENSFKSVKGYTFKKPEKLLVDQNTLWVSDVNAQKLVEVKIYKNEIREY
